Results published in patent publication US11203621B2, “PH-responsive proteolysis probe” (RIKEN, priority 2015, dated 2021).

Assays:
MEF cells [1] = assay: Detection of mitophagy in mammalian cells using mt-SRAI′; format: cell-based, Mouse; conditions: 30 μM CCCP, 18 hours, MEF cells with mCherry-Parkin, compared to before addition
Protocol: A construct that expresses mt-SRAI′ was introduced into MEF cells, in an attempt to visualize and detect mitophagy. mt-SRAI/pMCSTRE3G, pEF1α-Tet3G, and mCherry-Parkin/pcDNA3 which is a factor necessary for mitophagy, were introduced, each in an amount of 0.5 μg, into MEF cells with use of Lipofectamine (Registered Trademark) 2000. Six hours after the introduction, the medium was replaced by a nutrient medium containing 1 μg/ml doxycycline. Twenty-four hours later, induction of expression was stopped, and the nutrient medium was replaced by a nutrient medium containing no doxycycline, so that localization and degradation of a probe remaining in the cytoplasm was encouraged. Eighteen hours later, mitophagy was induced with use of 30 μM carbonyl cyanide m-chlorophenylhydrazone (CCCP), and then 18 hours later, the cells were subjected to imaging. […] In performing the imaging and obtaining and analyzing the images, the same conditions as those for the detection of autophagy in fixed mammalian cells were applied. Ratio images were generated in IMD display in a range of 0 to 0.4.

pepsin = assay: Resistance to degradation by acidic protease (incubation in pH 7.0 / pH 4.0 / pH 4.0 + pepsin buffers); format: physicochemical
Protocol: An Escherichia coli test was conducted which included a treatment of incubating purified recombinant proteins in each of three reaction buffers (pH 7.0/no pepsin, pH 4.0/no pepsin, pH 4.0/0.05% pepsin). The reaction buffers had been prepared as 25 mM HEPES buffer (pH 7.0) or 25 mM acetic acid buffer (pH 4.0) (119 mM NaCl, 2.5 mM KCl, 2 mM CaCl2, 2 mM MgCl2, and 30 mM glucose). A mixture obtained by adding each purified protein to each of the reaction buffers was incubated at 37° C. for 2 hours. The mixture was divided into two, each of which was then subjected to fluorescence intensity measurement and western blotting. The fluorescence intensity measurement was conducted after the pH of the mixture was prepared by diluting the mixture by 200 folds with use of a buffer at pH 7.0. For detection of a protein by means of western blotting, the following antibodies were used. AFFP: a rabbit anti-Azami-Green antibody (MBL, PM052M). EGFP and Ypet: a rabbit anti-GFP antibody (CST, #2555).
With use of SRAI/pRSETB, the same procedure as the fluorescence intensity measurement in the item <Confirmation of resistance to degradation by acidic protease> was carried out. Fluorescence intensity measurement was conducted by irradiating the AFFP part in SRAI with excitation light of 410 nm and irradiating the Ypet part in SRAI with excitation light of 500 nm.
Experiments were conducted to determine whether or not a probe (Rosella) reported by Rosado et al. was suitable for measuring autophagy as compared with SRAI. A construct of Rosella was expressed in Escherichia coli, and a recombinant fluorescent protein was purified. The recombinant fluorescent protein was incubated for 2 hours at 37° C. in a reaction buffer at pH 7.0, a reaction buffer at pH 4.0 (with 0.05% pepsin), and a reaction buffer at pH 4.0 (without 0.05% pepsin) in accordance with a previous report (Katayama, H, et al. (2008) Cell Struct. Funct. 33, 1-12), and was subjected to fluorescence measurement. Before the fluorescence measurement, pHs of these samples were adjusted to coincide with each other by diluting each sample with a buffer (pH 7.0) by 200 folds. The reaction buffers had each been prepared as 25 mM HEPES buffer (pH 7.0) or 25 mM acetic acid buffer (pH 4.0) (119 mM NaCl, 2.5 mM KCl, 2 mM CaCl2, 2 mM MgCl2, and 30 mM Glucose).

MEF cells [2] = assay: Detection of autophagy in mammalian cells (ratio imaging); format: cell-based, Mouse; conditions: living MEF cells, HBSS 37° C. 2 hours
Protocol: SRAI/pcDNA3 was introduced into MEF cells so as to express SRAI therein, and whether or not SRAI was suitable for observation of autophagy was evaluated. As a control, mCherry-EGFP was used. In order for mCherry-EGFP to be equivalent to an amino acid sequence presented in a previous report (Elsa-Noah N'Diaye, et al., (2009) EMBO reports 10, 173-179), (i) a BamHI/HindIII fragment of mCherry, which fragment contained no stop codon, (ii) a HindIII/EcoRI fragment of EGFP, in which fragment cDNA encoding a linker ([…]) (SEQ ID NO: 6) at N-terminus was added, and (iii) a BamHI/EcoRI fragment of pcDNA3 were ligated with each other, thereby producing mCherry-EGFP/pcDNA3. […]
In imaging, Cool SNAP HQ2 (Photometrics) was used as a camera, UplanF1 40× oil N.A.1.30 (Olympus) was used as an objective lens, and U-MCFPH Q (for AFFP), U-MYFPH Q (for Ypet), U-MRFPH Q (for mCherry), and U-MGFPH Q (for EGFP) were used as filter cubes (each cube is manufactured by Olympus). Images were obtained and analyzed with use of MetaMorph (Universal Imaging Corporation). […]
Further, Rosella was introduced into MEF cells in an attempt to visualize and detect autophagy. […] Images were obtained and analyzed with use of MetaMorph (Universal Imaging Corporation), and ratio images were produced as DsRed.T3/SE P in IMD display in a range of 0 to 1 (the scale bar for FIG. 12 is 20 μm).

MEF cells [3] = assay: Detection of autophagy in fixed mammalian cells; format: cell-based, Mouse; conditions: MEF cells fixed 15 minutes in PBS containing 4% PFA
Protocol: Subsequently, examination was conducted to examine whether or not SRAI would detection of autophagy also in fixed cells. The same operations as those of the autophagy detection above were conducted, except that (i) only SRAI was observed and (ii) after observation of living cells, the cells were fixed and observed again in the same field of view. The living cells were fixed for 15 minutes at room temperature in PBS containing 4% PFA, and cells thus fixed were subjected to washing with use of HBSS (5 minutes×3 times) and then subjected to observation for the second time.

[4] = Escherichia coli test: fluorescence intensity of purified recombinant proteins; format: physicochemical; conditions: expressed at 18° C., buffer at pH 7.0, equal protein concentration
Protocol: AFFP and mAG407 were expressed in Escherichia coli (18° C.) and a mammalian cell (Mouse embryonic fibroblast (MEF) cell) (37° C.) so as to be compared with each other in terms of fluorescence intensity. Comparison of fluorescence intensity between AFFP and mAG407 which were expressed in Escherichia coli was conducted in accordance with a previous report (Katayama, H, et al., (2008) Cell Struct. Funct. 33, 1-12). The concentrations of purified recombinant proteins were adjusted to coincide with each other, and the fluorescence intensity of each fluorescent protein was measured in a buffer at pH 7.0. A test conducted with respect to a protein expressed in Escherichia coli in accordance with the aforementioned Katayama, H, et al. will be hereinafter simply referred to as “Escherichia coli test.”
Both in the Escherichia coli test and the MEF cell test, AFFP was excited with use of excitation light having an excitation peak wavelength (406 nm) and mAG407 was excited with use of excitation light having an excitation peak wavelength (407 nm), in the measurement of fluorescence intensity. Further, both in the Escherichia coli test and the MEF cell test, the intensity of fluorescence emitted from AFFP was set to 1 in numerical representation and plotting of fluorescence intensity.

[5] = Escherichia coli test: pH dependency of fluorescence intensity; format: physicochemical
Protocol: As a control for AFFP, a protein was selected as appropriate from green fluorescent proteins (EGFP and Sapphire), a yellow fluorescent protein (Ypet), and red fluorescent proteins (mCherry and Tag-RFP).
With use of EGFP and mCherry as controls, an Escherichia coli test was conducted to examine pH dependency of a change in fluorescence intensity of AFFP. In the Escherichia coli test, fluorescence intensity of a purified recombinant protein obtained was measured under nine pH conditions ranging from pH 4.0 to 8.0 with an increment of 0.5. The fluorescence intensity of each fluorescent protein under each pH condition was plotted. Note that the plotting was performed in such a manner that a maximum fluorescence intensity of each fluorescent protein was set to 1, and fluorescence intensities of the fluorescent protein under other pH conditions were plotted as relative values with respect to 1.
With use of EGFP, Sapphire, Ypet, mCherry, and Tag-RFP as controls, an Escherichia coli test was conducted to examine pH dependency of a change in fluorescence intensity of AFFP. In the Escherichia coli test, fluorescence intensities in respective cases of pH 7.0 and pH 4.0 were measured. Then, fluorescence intensities of the fluorescent proteins under the two pH conditions were compared. Note that the fluorescence intensity of each protein at pH 7.0 was set to 1. […]

[6] = acidic condition (pH 4.0/no pepsin)
[7] = acidic condition with pepsin added (pH 4.0/0.05% pepsin)
[8] = neutral condition (pH 7.0/no pepsin)

In the case of N#CC(C#N)=NNc1cccc(Cl)c1 [CCCP, carbonyl cyanide m-chlorophenylhydrazone], the “mitophagy induction (red points in ratio images)” value (MEF cells [1]) is reported as “significant increase of red points”.

In the case of “SRAI: FRET probe obtained by ligating Ypet, a (GGGGS)3 linker, and AFFP in this order”, the “fluorescence spectrum, excitation 410 nm” value (pepsin; [6]) is reported as “reduction in peak of fluorescence from Ypet”, the “fluorescence spectrum, excitation 500 nm” value (pepsin; [6]) is reported as “single weak peak” and the “fluorescence spectrum, excitation 410 nm” value (pepsin; [7]) is reported as “only a single peak that was based on fluorescence from AFFP”. The “fluorescence spectrum, excitation 500 nm” value (pepsin; [7]) was “no fluorescence”, the “fluorescence spectrum, excitation 410 nm” value (pepsin; [8]) was “two peaks” and the “fluorescence spectrum, excitation 500 nm” value (pepsin; [8]) was “single intense peak”. The “autophagy signal (bright points, high-ratio structures in ratio image)” value (MEF cells [2]) was “a bright point (dot) and a red point in a ratio image were observed” and the “autophagy signal before and after fixation” value (MEF cells [3]) was “little change was observed”.

B1: AFFP: modified mAG407 further having mutations T58S, V60S, T82A, R184S, K199E, Y210C, Y217A; green fluorescent protein used as FRET donor (protein)
chain: MVSVIKPEMKIKLCMRGTVNGHNFVIEGEGKGNPYEGTQILDLNVTEGAPLPFAYDILSTSFQYGNRAFTKYPADIQDYFKQAFPEGYHWERSMTYEDQGICTATSNISMRGDCFFYDIRFDGTNFPPNGPVMQKKTLKWEPDTEKMYVEDGVLKGDVNMRLLLEGGGHYRCDVKTTYKAKKEVSLPDAHKIDHRIEILEHDKDYNKVKLCENAVARASMLPSQAK
For B1, the “degradation by acidic protease (western blotting, fluorescence)” value (pepsin; pH 4.0/0.05% pepsin, 37° C., 2 hours) was “not degraded by acidic protease”, the “fluorescence intensity relative to mAG407” value [4] was 2.5 times and the “pH dependency of fluorescence intensity” value ([5]; nine pH conditions, pH 4.0 to 8.0, controls EGFP and mCherry) was “substantially constant fluorescence intensity”. The “fluorescence intensity at pH 4.0 versus pH 7.0” value ([5]; pH 7.0 set to 1, controls EGFP, Sapphire, Ypet, mCherry, Tag-RFP) was “not affected by a change in pH”.
